Test results from the domain aggregation screens of Martell et al. (2025).

experiment: soluble fraction after stress (log2 fold change); higher = more stays soluble; pooled small domains, quantitative proteomics; details: stress: 75 degC
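Note: 20 min heating vs room temperature control held 20 min.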

Sequence | soluble fraction (log2)
HMEGSVTVMVNGESVTMTGKQNYIFVDVFDWYSFDLSAGKGRAIATLVNGKEAEFSQPLANGDNIELYWKE | -2.15
HMEGTAAAVALKGLMEQSGVDLREVMAAVESRGYYPKGTPFENYDPAFVSGVLVGAWDQVYKMILDQRPIP | -0.692
HMEGVSPQTVQEHIRRFIAAEDPASPLSDEALREALGNLGINASRRTVAKYRGEMGIPSSAQRKR | -0.0573
HMEGVSSESVKEMLKSIIDGEDPHNPVSDQRITDILNSRGINISRRTVAKYRDELGIASSSRRKRY | 0.298
HMEGYLYLSESQNELILKNLKTPLKYNLYNASGKLIKKGNIKNTLDISELPKGVYIFTSSDNSFSKKFLKT | -1.55
HMEHAETDTRERILVVAERLFRQLGYQKTTVADIAKELRMSPANVYRFFDSKKSIHEGVARTL | -0.896
HMEHETTQLELNAPGQRLDAALALALPDTSRAQIQQWIKQGLVTDQAGTALLQASLKLKSPLNVVLQRPI | -0.215
HMEHIDVSGRAFDVSVSRLKRARRLTMRIDTHKQLVKISAPLHVESSTIRAFLARNQNWLEQQVEKR | -0.839
HMEHLTATERHLVAYLEAHLGQVPSLSITKLSQEANVSTASIVRTMKKLGYDGFTAFKHAIKQQLR | -2.67
HMEHTPHGVALLRTLMDQYGLKAADLANELGSKSNVSNILNGRRALTVSHIKMLAERFNLPADAFI | -1.33
HMEIALNDKQILLFSNKLVHEPSFASKYSKVGESYDDFAIRISENLTIPDKVQEYLPYLEKVGFNI | -0.622
HMEIDDPWLILGINAGSSIEIAQKAWKDLASQNHPDKLIANGVPKELLGMANEKLAIINGAYDKILKAHKI | -0.295
HMEIETPEIRAIHDLLELLANKAKKPEQEQFVQAHPEVQWAKVEANKNGTFAVGKVKAYLKTLQA | -0.39
HMEIGNVIAKLRVSNGLNQREFAKKLEVSNGAVAMWETNKRQPDLEMIKKISNLFDVPTDYILGAGTFQ | -0.838
HMEIIFVEHKVRPGESVWLIARKYKVKKNHILAVNNLSEKSIIRPKQILKIPTSGYDQYKKSVE | -3.79
HMEIIMIVITKPSITDERIAEIVAVIERNGGVQAHVSKGTDRTVIGIIGKAEPTLAEHLRQMKGVENVIKI | -1.33
HMEIPMRDKLKTYIDYLFAGAPQTAATAETKAEILQNTLDKYDDLIAEGKTPEAAYSLAVSGIGDLGDF | -0.179
HMEIPTEEILKQKLYYSISEVASWFKVNTSLLRYWENEFDILQPRKTRKGDRLFRVEDIKNLQLIYLL | 0.26
HMEITGKYKAKEDIKLKVIPLISSLDLQDIKQNTELEVKDTMNNWAYVTVQEKQGWVVLEKIEKVE | -0.631
HMEITTLTGVLGAGRLDSALAAALPQYSRARIQALISDAALRINGQVVADAGSKKMSGQTFELNIPAPVP | -0.594
HMEKDEYIFVDIDGAVFNPGVYKLIAGSRVIDAINLAGGLKEKAFTQNLNKARKLVDGEKIYIYLEGDEE | -0.552
HMEKDRDKRIRKRVLTALKRNDKKMTDKAFALLTSRIRDESILDQEVLKLIGYVGDRTTIDSKDINIVVAE | -0.392
HMEKEEELNSIRPDLDGNDIMEILGVPAGPKVGKAYNYLLNVRLDEGPLSRAEAISRLEAWWENQ | -0.168
HMEKELVSDFASRISTARSSKGWNHAELGKRMAETVNVIKSAESGKPPTDSVVKKLERVLGITLMEV | -0.0517
HMEKEYMKNVVGMEYRQARVLLGDMGLELAFQPVYETSDKYPTDVVVSTEPAADQPLTKGQTVILHIST | -0.332
HMEKGNEEALEQAREAILAVQSGEKYVDLDPANAAIRRKQHALAQASDLVSQSYGKDPNRYVRIFR | 0.233
HMEKINLLVENNDNYRLDKIIALNMEELSRTQIQEMIGQGLVLVNGKVEKASYKTKLNDQIEITIED | -0.0065
HMEKKKVPEVAGQDEAAARNVMTNSGFVVDVEQKEDDNVPAGKVITTAPAGGVEVVEGTKIILYVSKGSN | -0.052

Sequence | soluble fraction (log2)
HMEKKPYGEMHNVMLTDEELEKLRHDYPAHFAEYIQRLSLHIDAKGARYKSHYAVIRKWLIADGVKA | -2.36
HMEKLIRIKRLIKQLNEYRDSYYNEARPVVSDAAYDKLFDELSELEKETGVVYANSPTQTVG | 0.0942
HMEKPTEITLSNRVSVQELAEKMYVSETDIIRTLFLDGRIININQVLDIDTAIRVGEQLGIKIKII | -2.14
HMEKPTRNKLVEIIIQNKNVTTEQMANLLNISRRAVAKHIKKLQEEGIIRRIGPDFGGHWEIVK | -0.294
HMEKPYTPPANLNEIQSYEELSKAVQYYNKVKDAATTDADRLKAQQSIDTLEDMRKAWDAASST | 0.328
HMEKSLSAQVYEKIKAGIISLKYPPGSVLKERELSESLGVSRTPVREAIQRLSQESWLVPGEGKRMQVRP | -0.0542
HMEKTLAERVNDILAEIKMTKQELAMQLNISRSAVSQYLNGKYSSNPEAIEARLRDFVSSYDRG | -0.292
HMEKYIVEAEEQGKRLDMYISSKDEELTRTSAQRLIEQGDILVNNKKVKVAYKVSEGDIIAVEKQ | -0.0711
HMELDLPLEELGLSTRVLHSLKEEGIESVRALLALNLKDLKNIPGIGERSLEEIKEALEKKGFTLK | -0.103
HMELEENTERVLNILIENDIISENDIAEKLEVKINGARKALYKLKEVGFVEYTKERDEEKKWWYIYFWKLN | -0.132
HMELEKIRPDLDGLEIMAILGISPSPIVGRAYQYLLDLRMDRGPLGPDAAKAELLNWWSLNQPK | -1.66
HMELGRQDSAQLGRWAAGILAKNGKKITGRTMEFFLSRTGDDMENISSELEKLISYTLGREVITEEDIEAV | -0.263
HMELGWYVRLRRRELGLSVTALAEKAGMSQSYLSQIETGDRGNPSPESLRSLAEALEVSPRELESLV | -2.82
HMELMKPPGYWQSLENAIYESKKVIKEHGFDTLPSSNKLRELDYHGLSRAISVHHSGFPNFREIMNQELGI | -0.00652
HMELNDEELIKGIQELLTKIGYDPGEINGVLGIKTSSAISAFQQSRNKAITGEADLDLLVQLQIELRKITT | -1.86
HMELNGVSETAKSVYSIILNNSSTVDDIVIKTKLPAAKVMQALTELELNDAVERKSGGVYALP | 0.0577
HMELPADLATVLSVDDIRAIALAEVPGSTITGVELEREEGVLVYKVKFNDGSYKLYDANTGELV | 0.105
HMELPPLEPIDRILVVQQPINIREQPGVLAKKIGRVSSGETLTILAKVSGQDWYFVETDNGGRGYVFKRV | -1.15
HMELQYSQEIEEAQKILENLGLYRGEIDGINGINTKSAIREFQRKSGLVVDGILGPNTTNALSKGSDAYIT | 0.0481
HMELVQIIGNNIRDLMTTRSVTITDLANYLNVSRQTLQNYLRGSNIIDSVKLVAVSDFFDVPVESLLQSK | -1.45
HMEMGNKIKELRTKLGITQEELSKTLNVSSQAVSKWENGGLPDLELIPEIAKYFNVTTDYLFDIK | -0.187
HMEMKVIPFNQMTRDQFDQLDRFLGRLAAAQAMGSLRLTKAQQNYFLNQVKQLDLYRKRILN | -1.96
HMEMTSREIIKRLEEDGWYHVKTTGDHYQMKHPTKPGKVTIVHPAKDLSIGTLRSIEKQSGVRL | -0.18
HMEMVSMPGLTGSTLEFATKTLTENELKYEVVYIVDASAESGLIIRTYPTEGEMVSKKTSTIYLYIKE | -3.4
HMENDGQFLRAEREKYGLTLTDIYEHTHIPIKKLKAYEMWEEEMPPRTRALLELYFDQVAFEYDS | -0.862
HMENDPYEILGIARSASDDEIKAKYRALTRENHPDILMAKGVPQEFIDLANEKMAVINAAYDKIEKER | 0.407
HMENEDMTGDIRVIDYIRNVAEYIQTTKGQASASQMLDRFLFPPELQYTPLDKLSGGEQRRLYLLKVLMEA | 0.0433
